# In patent publication US20200009190A1:
# Target: CD200 expressed on FBL leukemia cells transduced with CD200 (CD200+ FBL) (UniProt O54901)
# Test: cell-based or functional assay
# Sequence of CD200 expressed on FBL leukemia cells transduced with CD200 (CD200+ FBL) (O54901 31-278 limits assumed): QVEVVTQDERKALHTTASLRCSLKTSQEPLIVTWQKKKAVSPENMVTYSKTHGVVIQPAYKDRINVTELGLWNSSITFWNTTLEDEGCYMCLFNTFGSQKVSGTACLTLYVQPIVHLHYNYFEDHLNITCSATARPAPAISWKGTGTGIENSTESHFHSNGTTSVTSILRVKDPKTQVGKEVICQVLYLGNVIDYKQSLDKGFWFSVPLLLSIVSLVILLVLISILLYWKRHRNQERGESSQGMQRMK
substance,measurement,value
CD200R-9aas-CD28Cys (murine construct V) (from UniProt Q9ES57 26-229; P31041 142-218),accumulation of transduced T cells over multiple cycles of stimulation with irradiated CD200+ FBL,3 fold
same,"fold enrichment, stimulation 3/stimulation 1",3 fold
same,lysis of CD200+ FBL (CFSE-based cytotoxicity assay),40%
same,percentage of cytokine non-producing cells (flow cytometry),27%
same,"percentage of polyfunctional cells producing all 3 cytokines (IFNγ, IL-2, TNFα)",22%
